# From PMC4589357, “The Role of Electrostatic Interactions in Binding of Histone H3K4me2/3 to the Sgf29 Tandem Tudor Domain” (PLoS ONE, 2015)
# Substitutions are numbered along the chain they refer to. In names and notes the source's numbering stands. Non-standard residues stand in square brackets, D forms with d. Primed or numbered codes have the meaning given here. No end group written: not given here. Lys(Me3) = C[N+](C)(C)CCCC[C@H](N)C(=O)O; Me3″ = trimethyl-lysine
# T1: Wild-type Sgf29 (SAGA-associated Factor 29) tandem tudor domain, residues 115-293 (human, UniProt Q96ES7 115-293)
# T1 construct: also called WT Sgf29; WT; source: E. coli Rosetta BL21 DE3 PlysS, purified (Ni-NTA, TEV cleavage, SEC Superdex 75)
# T1 sequence (looked up): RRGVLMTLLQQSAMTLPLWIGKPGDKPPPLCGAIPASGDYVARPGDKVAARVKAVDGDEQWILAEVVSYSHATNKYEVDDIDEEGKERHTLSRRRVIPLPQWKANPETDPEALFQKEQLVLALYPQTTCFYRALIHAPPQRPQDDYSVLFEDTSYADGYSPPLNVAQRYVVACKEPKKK
# B1: WT: Wild-type Sgf29 reader domain protein (Homo sapiens, residues 115–293) (protein)
# chain: T1 sequence (looked up)
# modifications: left off: 6xHis, end not stated, cleaved
# B2: D266W: Sgf29 variant, D266 substituted by tryptophan (protein)
# chain: T1 sequence (looked up) with D152W
# modifications: left off: 6xHis, end not stated, cleaved
# notes: Sgf29 variant, D266 substituted by tryptophan
# B3: Y238F: Sgf29 variant, Y238 substituted by phenylalanine (protein)
# chain: T1 sequence (looked up) with Y124F
# modifications: left off: 6xHis, end not stated, cleaved
# notes: Sgf29 variant, Y238 substituted by phenylalanine
# B4: D266F: Sgf29 variant, D266 substituted by phenylalanine (protein)
# chain: T1 sequence (looked up) with D152F
# modifications: left off: 6xHis, end not stated, cleaved
# notes: Sgf29 variant, D266 substituted by phenylalanine
# B5: D266Y: Sgf29 variant, D266 substituted by tyrosine (protein)
# chain: T1 sequence (looked up) with D152Y
# modifications: left off: 6xHis, end not stated, cleaved
# notes: Sgf29 variant, D266 substituted by tyrosine
# B6: D266N: Sgf29 variant, D266 substituted by asparagine (protein)
# chain: T1 sequence (looked up) with D152N
# modifications: left off: 6xHis, end not stated, cleaved
# notes: Sgf29 variant, D266 substituted by asparagine
# B7: Y245F: Sgf29 variant, Y245 substitution (Y245F) (protein)
# chain: T1 sequence (looked up) with Y131F
# modifications: left off: 6xHis, end not stated, cleaved
# B8: D266A: Sgf29 variant, D266 substituted by alanine (protein)
# chain: T1 sequence (looked up) with D152A
# modifications: left off: 6xHis, end not stated, cleaved
# notes: Sgf29 variant, D266 substituted by alanine
# B9: D266E: Sgf29 variant, substitution of D266 by glutamic acid (protein)
# chain: T1 sequence (looked up) with D152E
# modifications: left off: 6xHis, end not stated, cleaved
# notes: Sgf29 variant, substitution of D266 by glutamic acid
# B10: 7-mer H3K4me3 peptide ARTKme3QTA (peptide)
# peptide: ARTK(Me3″)QTA
# notes: histone H3 N-terminal tail, 7-mer, K4 trimethylated, lacks the last three residues of the 10-mer; The synthesis is described only for the two native 10-mer peptides; also called 7-mer peptide
# B11: 10-mer H3K4me3 peptide that contains G instead of R at position 8 (ARTKme3QTAGKS) (peptide)
# peptide: ART[Lys(Me3)]QTAGKS
# notes: The synthesis is described only for the two native 10-mer peptides
# Assays:
# [1] = Differential scanning fluorimetry (DSF) melting temperature of Sgf29 and variants; format: physicochemical, Homo sapiens; conditions: for Tm: SYPRO-Orange fluorescence, 25 mM TRIS pH 7.5, 50 mM NaCl, 1 mM DTT, 2.5 μl of 25 μM protein in 25 μl, 20–95°C, 1°C min^-1, ± SD, measured in triplicate
# Procedure: Wild-type and variant Sgf29 reader domain proteins (Homo sapiens, residues 115–293) were expressed in terrific broth (TB) medium containing 50 μg ml^-1 kanamycin, using E. coli Rosetta BL21 DE3 PlysS as expression host. Bacteria were cultured to OD600 ≈ 0.6 at 37°C, 200 rpm after which the cultures were induced using 1 mM IPTG (final conc.). Cultures were then incubated at 16°C for 16 hours. Cells were harvested and lysed by sonication in 1x PBS, 250 mM NaCl, 5% glycerol, 0.2% CHAPS, 10mM β-mercaptoethanol. Lysate was centrifuged and the supernatant purified using Ni-NTA beads. The 6xHis tag was cleaved off overnight at 4°C using TEV-protease. Size exclusion chromatography, using a superdex 75 column, was employed as a final purification step with 25 mM TRIS pH 8.0, 50 mM NaCl, 1 mM DTT as eluent. Protein concentrations were determined by UV/Vis spectroscopy at 280 nm.
# Sgf29 protein melt curves were obtained as described by Reinhard et. al. using a StepOne-Plus Real-Time PCR system (Applied Biosystems) and MicroAmp fast optical 96-well reaction plates (Applied Biosystems). SYPRO-Orange protein gel stain (Invitrogen) was used as a reporter dye, emitting fluorescence in the FAM channel. Total reaction volume was 25 μl; 20 μl buffer (25 mM TRIS pH 7.5, 50 mM NaCl, 1 mM DTT), 2.5 μl of 25 μM protein and 2.5 μl SYPRO-Orange dye (diluted 1:100 in ddH2O). Melt curve data were obtained in triplicate, in a temperature range of 20–95°C at a step-wise temperature increment of 1°C min^-1. Obtained data were analyzed using DSF Analysis v3.0.2 software, designed by Niesen et. al. (available via ftp://ftp.sgc.ox.ac.uk/pub/biophysics/).
# [2] = target: T1, Wild-type Sgf29 (SAGA-associated Factor …); assay: ITC; peptide (generally 1.2 mM) titrated to protein (100 uM); for variants of low affinity 2.4 mM peptide to 200 uM protein; 25 mM TRIS pH 8.0, 50 mM NaCl, 1 mM DTT; one-site model; conditions: both partners purified
Molecule,Tm [1] [°C],further results
B1,57.8 ± 0.1,Tm ([1]; listed as WT Sgf29): 57.8 °C
B2,55.5 ± 0.1,decrease in Tm relative to WT Sgf29 [1]: 2.3 °C
B3,56.5 ± 0.2,
B4,53.9 ± 0.5,decrease in Tm relative to WT Sgf29 [1]: 3.3 °C
B5,54.5 ± 0.2,decrease in Tm relative to WT Sgf29 [1]: 3.9 °C
B6,56.4 ± 0.1,
B7,56.4 ± 0.1,
B8,55.8 ± 0.3,
B9,57.7 ± 0.1,
B10,,Kd [2]: 9 ± 0.5 µM; dH [2]: -7.8 ± 0.1 kcal/mol
B11,,Kd [2]: 4 ± 0.6 µM; dH [2]: -8 ± 0.1 kcal/mol
